The target in assay [1] is Human Factor XIa (human) (UniProt P03951).
Assay [2] addresses Human plasma kallikrein (human) (UniProt P03952).
Assay [3] addresses tissue factor-Factor VIIa (human) (UniProt P13726).
Assay [4] deals with Human Factor XIa (human) (UniProt P03951). The source holds these as a separate data set.
The target is the same in assay [5]. Briefly: inhibition of FXIa, chromogenic substrate, fit for tight-binding inhibitors (apparent Ki*).
Assay [6] addresses Human plasma kallikrein (human) (UniProt P03952). Description: inhibition of human plasma kallikrein, substrate S2302, fit for tight-binding inhibitors (apparent Ki*).

“APPI (Alzheimer's amyloid β-protein precursor inhibitor)”: the fraction of remaining proteolytic activity with 100 nM inhibitor (fraction of uninhibited rate) was 0.03 in the assay with Human Factor XIa (human) [1], 0.81 in assay [2] and 0.6 in assay [3]. Besides, the fold prolongation of the clotting time of normal human plasma, APTT assay in the assay with Human Factor XIa (human) [4] is 2.8 fold. The figures for the Ki (with Human Factor XIa (human) [5]; in assay [6]) were 2.7 nM and 340 nM, respectively.
